Assay results taken from patent US12419937B2, “High concentration alpha-glucosidase compositions for the treatment of Pompe disease” (Amicus Therapeutics, Inc., priority 2012, dated 2025).
Entries after “also recorded” stand apart in the source; their conditions may differ. Counter-ions that a name gives are not always drawn.

Assays:
[1] = system: cell lines derived from late-onset Pompe patients with the IVS 1 (−13 T>G) splicing defect; experiment: GAA levels in cell lines derived from late-onset Pompe patients; format: cell-based, human; conditions: alone and in combination with hrGAA
[2] = target: T1, rhGAA (e.g., Myozyme®) (Homo sapiens, UniProt P10253); experiment: rhGAA enzyme inactivation in citrate anti-coagulated whole blood at 37° C. (Examples 7, 8); format: in vitro ADME; conditions: for enzyme inactivated in whole blood: no 1-DNJ-HCl
T1 construct: purchased Genzyme Corp; host or cells: Chinese hamster ovary cell line
Protocol: Aliquots were collected at 0, 2, 4, 8 and 24 hrs and centrifuged to obtain plasma. These plasma samples were then diluted in potassium acetate buffer (pH 4.0) and assayed for GAA activity using the 4-methylumbeliferyl-α-glucose (4-MUG) fluorogenic substrate. The measured GAA activity for individual samples at each time point was normalized to the 0 hr and expressed as % of initial activity. Data from 4 independent experiments were analyzed to obtain the mean (and standard deviation) and plotted versus time to assess the loss of enzyme activity over this time course.
Aliquots were collected at 0, 3 and 6 hrs and centrifuged to obtain plasma. These plasma samples were then diluted in potassium acetate buffer (pH 4.0) and assayed for GAA activity using the 4-methylumbeliferyl-α-glucose (4-MUG) fluorogenic substrate. The measured GAA activity for individual samples at each time point was normalized to the 0 hr and expressed as % of initial activity.
Moreover, since Myozyme® has a long plasma half-life (reported to be more than 3 hrs), there is a high probability that an appreciable amount of the enzyme remains in the circulation many hours after the infusion that would also be prone to inactivation.
Based on human plasma PK data, these concentrations are readily obtainable in the clinic.

[3] = system: GAA KO mice; experiment: rhGAA activity in heart and diaphragm of GAA KO mouse (Example 6); format: in vivo; conditions: co-administered with 1-DNJ-HCl vs ERT monotherapy
Protocol: Heart and Diaphragm tissue homogenates were harvested and rhGAA activity was measured using the fluorogenic substrate (4-MUG).

[4] = system: GAA KO mice; experiment: Myozyme® tissue uptake in GAA KO mice with and without oral 1-DNJ-HCl (Example 3); format: in vivo, mouse
Protocol: Five groups of GAA KO mice were administered one of the following formulations: […]
(2) 10 mg/kg of Myozyme® IV once per week, for up to three weeks
Tissue homogenates were generated for analysis. Enzymatic activity as determined using a 4-MUG fluorogenic substrate assay.

[5] = rat
[6] = target: T2, recombinant human GAA (Myozyme®) (Homo sapiens, UniProt P10253); experiment: SYPRO Orange thermal stability assay (heat-induced denaturation); format: physicochemical
T2 construct: purchased Genzyme Corp
Excerpt: The thermal stability assay utilizes heat to induce protein denaturation, which is monitored using a SYPRO Orange dye that fluoresces upon binding to hydrophobic amino acids (which are not exposed in a folded protein).
FIG. 5 depicts the results of a thermal stability assay that utilizes heat to induce protein denaturation, which is monitored using a SYPRO Orange dye that fluoresces upon binding to hydrophobic amino acids (which are not exposed in a folded protein).
Denaturation is monitored using a SYPRO Orange dye that fluoresces upon binding to hydrophobic amino acids (which are not exposed in a folded protein).
The thermal stability was performed at pH 7.4 for two formulations, which corresponds to the pH of the ER.

[7] = system: GAA KO mice; experiment: Repeat subcutaneous dosing of rhGAA or rhGAA + 1-DNJ co-formulation in GAA KO mice (Example 13); format: in vivo, mouse
Protocol: 12-week old male GAA KO mice in groups of 7 were used in the present study. Each group of mice was administered one of the following treatments:
(2) Lumizyme® alone (20 mg/kg) delivered subcutaneously (SQ); or
(3) Co-formulated Lumizyme® (20 mg/kg) and 1-DNJ (30 mg/kg) SQ.
Each of the treatments were administered to their respective treatment group for a period of 2 weeks. The treatments were administered on Monday and Thursday of each week. SQ injections were administered between the shoulder blades of each mouse receiving treatment. A total of 4 doses was administered to each study animal. Diphenhydramine was administered intraperitoneally (IP) before the 3rd and 4th doses.
rhGAA and glycogen levels were determined according to the following sampling protocol. Blood was taken from each study animal after the 4th dose for plasma pharmacokinetic analysis. GAA activity, Western blots, and 1-DNJ levels were determined for plasma samples taken 2 and 4 hours after the last SQ dose.
Tissue samples were collected to determine rhGAA uptake 3 days following the last dose of the study (i.e., 3 days post dose 4). Tissue samples included heart, diaphragm, tongue, brain, spleen, liver, biceps, triceps, quadriceps, soleus, gastrocnemius, ventral skin and dorsal skin from the SQ injection site. Tissue samples were also collected to determine glycogen concentration 14 days following the last dose of the study (i.e., 14 days post dose 4).

[8] = Solubility of Lumizyme® in the presence of 1-DNJ-HCl and excipients (Example 12); format: physicochemical; conditions: for Protein solubility: phosphate buffer
Protocol: A vial of Lumizyme® containing 52.5 mg protein, 210 mg mannitol, 0.5 mg polysorbate 80, 9.9 mg Na2HPO4×7H2O, and 31.2 mg NaH2PO4×H2O was dissolved in a minimal volume of water (1 mL added) yielding 1.2 mL of protein solution. Five 240-μL aliquots (each containing 10.5 mg protein) were transferred to Amicon Ultra 0.5 mL 30 kDa cutoff centrifugal filter devices and centrifuged for 10 min at 14,000×g in an Eppendorf centrifuge to obtain about 50 μL of retentate.
The original excipients present in the composition, i.e., mannitol and polysorbate 80 were exchanged for new excipients to test protein solubility (keeping the same buffer conditions). The following excipient solutions were prepared for the exchange using the original phosphate buffer:
For exchanging excipients, 5.2 mg Na2HPO4 and 27.1 mg NaH2PO4 were dissolved in 10.3 mL water to prepare the washing/excipient exchange phosphate buffer of approximately 26 mM. A volume of 8 mL of the buffer for excipient exchange was supplemented with 160 mg/mL of the small molecule ligand (to prepare excipient 1, 3, 4 and 5 solutions), while 2 mL was supplemented with 32 mg/mL ligand for excipient 2 (100 mM Arginine). Each of the excipients were dissolved in 2 mL of this buffer at the concentrations listed above.
An excipient solution was added to each separate filter device to achieve a total volume of 0.5 mL. Each filter device was centrifuged for 15 min at 14,000×g in a bench top Eppendorf centrifuge to retain approximately 25 μL. The units were re-filled with the same excipient solution to 0.5 mL and centrifuged again (this process was repeated 2 times). This procedure efficiently replaced mannitol and polysorbate 80 with excipients described above, diluting the original constituents by about 1:1000. All filtrates for each excipient were collected and examined for any protein leaks through the filter.
Each centrifugal filter device was inverted in a clean tube, and the concentrated protein solution was collected from each filter device by centrifugation for 2 min at 1000×g. The volume of each sample was determined (66 μL, corresponding to a target protein concentration of 160 mg/mL), and it was confirmed that no visible precipitate was observable in each sample. Samples were transferred back to their respective filter devices and centrifuged for an additional 5 min. Samples were then collected by inversion of the filters into clean tubes and centrifuging for 2 min at 1000×g to yield about 37 μL of retentate (corresponding to >280 mg/mL protein based on a total initial concentration of 10.5 mg protein).
The samples were vortexed and incubated for 1 hr at room temperature to equilibrate liquid and solid phases followed by centrifugation for 10 min at 14,000×g. Again, no visible precipitate was observed. Two-three 10 μL aliquots were taken from the supernatant of each sample (depending on available volume of the liquid phase), and diluted 1:1000 in two steps. Protein concentration was measured by UV absorbance at 280 nm, and the maximum protein solubility was calculated according to a highly reproducible calibration curve. The calibration curve was prepared by dissolving 6.8 mg of Myozyme® (alglucosidase alpha) lyophilized powder (containing 1.16 mg protein) in 1.16 mL of water followed by a serial dilution in deionized water. Absorbance was measured at 280 nm in a 1 cm light-pass quartz semi-micro cuvette using 0.5 mL aliquots.

[9] = system: GAA KO mice; experiment: Tissue glycogen reduction in GAA KO mice (Example 9); format: in vivo, mouse; conditions: Myozyme® 40 mg/kg IV every other week for 8 weeks ± 30 mg/kg oral 1-DNJ-HCl, relative to untreated mice
Protocol: Glycogen reduction with Myozyme® alone was 93±1%, 41±4%, 69±3%, and 18±4%, in heart (A), diaphragm (B), soleus (C), and quadriceps (D), respectively, relative to untreated mice.
Twelve-week old male GAA KO mice were administered a single dose of Myozyme® (40 mg/kg) via bolus tail vein injection every other week for 8 weeks. To prevent anaphylaxis, before the third and fourth Myozyme® injection, diphenhydramine (10 mg/kg intraperitoneally) was administered 10 min before Myozyme® injection. […] Mice were euthanized 14 days after the last Myozyme® administration.
Glycogen levels in heart, diaphragm, soleus, and quadriceps were then measured. […] Briefly, homogenates were prepared by homogenizing ˜50 mg tissue for 3-5 seconds on ice with a microhomogenizer in […] deionized water. Supernatants were heat denatured (99° C. for 10 min) to remove endogenous amyloglucosidase activity. Denatured lysates (4 μL) were then analyzed in duplicate by addition of 36 μL water with and without 10 μL of 800 U/mL of amyloglucosidase (Sigma Aldrich, St. Louis, MO) and incubated for 1 hour at 50° C. The reaction was stopped by inactivation at 100° C. for 10 min. Finally, 200 μL of glucose reagent (Sigma) was added absorbance read at 340 nm on Spectramax. A standard curve ranging from 5 μg/mL to 400 μg/mL Type III rabbit liver glycogen (Sigma) was run each day for conversion of absorbance to absolute glycogen units. Simultaneously, the amount of protein was determined in tissue homogenates using the Micro BCA Protein Assay (Pierce, Rockford, IL) following the manufacturer's instructions. The glycogen content of each sample was normalized to protein, and data were finally expressed as micrograms of glycogen per milligram of protein (μg/mg protein).

[10] = system: GAA KO mice; experiment: rhGAA activity uptake after Myozyme® IV bolus in GAA KO mice (comparison study of Table 3); format: in vivo, mouse; conditions: 4 doses 20 mg/kg IV bolus at 2 week intervals, 3 days after the last dose
[11] = reported; cited from earlier work
[12] = 4 doses Lumizyme 20 mg/kg +/− 1-DNJ 30 mg/kg SQ at 3-4 day intervals, 3 days after the last dose

## OC[C@H]1NC[C@H](O)[C@@H](O)[C@@H]1O [1-DNJ-HCl, 1-deoxynojirimycin hydrochloride]
[1]
  GAA levels: increased GAA levels
[2]; 2.5 μM 1-DNJ-HCl, 6-hr time course
  loss of rhGAA activity in whole blood: ~20%
[2]; 50 μM 1-DNJ-HCl, Myozyme® 0.5 μM, up to 24 hrs, hydrochloride
  effect on rhGAA enzyme inactivation in whole blood: stabilized rhGAA and prevented enzyme inactivation; also recorded: prevents rhGAA enzyme inactivation
[2]; 50 and 100 μM 1-DNJ-HCl, 6 hrs
  stabilizing rhGAA in whole blood, concentration comparison: best for stabilizing rhGAA and preventing enzyme inactivation
[3]
  rhGAA uptake in the heart and diaphragm: increased
[4]; 10, 100, 1000 mg/kg oral 1-DNJ-HCl with 10 mg/kg Myozyme® IV weekly, up to 7 days post injection
  Myozyme® tissue uptake (as a measure of GAA activity), effect of coadministration: dose-dependent increase in Myozyme® uptake
[5]; in vivo, po, 30 mg/kg
  increase of plasma half-life of rhGAA: 2 fold
[6]; 1, 10, 100 μM 1-DNJ-HCl, dose-dependent
  GAA thermostability (GAA's melting temperature): increases GAA thermostability
[6]; pH 7.4, 100 μM 1-DNJ-HCl, vs Myozyme® alone, hydrochloride
  stability of Myozyme® (heat required to denature) on addition of the ASSC: required significantly more heat to denature

## alglucosidase alfa [Lumizyme®]
[7]; [12]
  rhGAA activity uptake, Biceps: 56.0 nmol/mg/h
  rhGAA activity uptake, Diaphragm: 4.2 nmol/mg/h
  rhGAA activity uptake, Gastrocnemius: 2.0 nmol/mg/h
  rhGAA activity uptake, Heart: 1.9 nmol/mg/h
  rhGAA activity uptake, Quadriceps: 2.1 nmol/mg/h
  rhGAA activity uptake, Skin: 75 nmol/mg/h
  rhGAA activity uptake, Soleus: 2.7 nmol/mg/h
  rhGAA activity uptake, Tongue: 2.7 nmol/mg/h
  rhGAA activity uptake, Triceps: 88.0 nmol/mg/h
[8]; Arginine 100 mM, 1-DNJ-HCl 32 mg/mL
  Protein solubility: 201 mg/mL
[8]; Arginine + Glutamic acid 50 mM + 50 mM, 1-DNJ-HCl 160 mg/mL
  Protein solubility: 242 mg/mL
[8]; Gamma-cyclodextrin 10% (w/v), 1-DNJ-HCl 160 mg/mL
  Protein solubility: 114 mg/mL
[8]; PEG400 5% (w/v), 1-DNJ-HCl 160 mg/mL
  Protein solubility: 158 mg/mL
[8]; Proline 250 mM, 1-DNJ-HCl 160 mg/mL
  Protein solubility: 195 mg/mL
[8]; without the added excipients
  solubility of the protein: about 80 mg/mL

## alglucosidase alfa [Myozyme®]
[4]; 10 mg/kg IV weekly, 7 days post injection
  Myozyme® tissue uptake (as a measure of GAA activity) over time: declined at 7 days post injection
[6]; pH 5.2 vs pH 7.4, no ASSC
  stability of Myozyme® at lysosomal pH vs ER pH: much more stable at lysosomal pH (5.2) than at ER pH (7.4)
[9]
  glycogen reduction in diaphragm: 41±4%
  glycogen reduction in heart: 93±1%
  glycogen reduction in quadriceps: 18±4%
  glycogen reduction in soleus: 69±3%
[10]
  rhGAA activity uptake, Biceps: 10.1 nmol/mg/h
  rhGAA activity uptake, Diaphragm: 7.1 nmol/mg/h
  rhGAA activity uptake, Gastrocnemius: 17.9 nmol/mg/h
  rhGAA activity uptake, Heart: 1.8 nmol/mg/h
  rhGAA activity uptake, Quadriceps: 6.9 nmol/mg/h
  rhGAA activity uptake, Skin: 27.1 nmol/mg/h
  rhGAA activity uptake, Soleus: 8.0 nmol/mg/h
  rhGAA activity uptake, Tongue: 12.4 nmol/mg/h
  rhGAA activity uptake, Triceps: 3.9 nmol/mg/h
[11]
  plasma half-life: more than 3 hrs

## rhGAA: recombinant human acid α-glucosidase; Myozyme® in Examples 7-8, Lumizyme® in Example 13, product not named in Examples 5-6
[2]; by 4 hrs
  enzyme inactivated in whole blood: approximately 40%
[2]; by 8 hrs
  enzyme inactivated in whole blood: ~70%
[2]; by 24 hrs
  enzyme inactivated in whole blood: ~100%
[2]; incubated with 50 μM 1-DNJ-HCl, up to 24 hrs
  enzyme activity in whole blood: remained completely active
[7]; 4 hours after the final SQ dose
  plasma rhGAA levels: increased compared to the levels in the 2 hour samples
[5]; iv
  in vivo half life of rhGAA: 1.4 ± 0.2 h
